Measured values reported in article PMC10558373, “[^68Ga]Ga-NODAGA-E[(cRGDyK)]2 angiogenesis PET following myocardial infarction in an experimental rat model predicts cardiac functional parameters and development of heart failure” (Journal of Nuclear Cardiology, 2023).
[ ]: non-standard residue; d: D form.

T1: integrin αvβ3 (UniProt P06756 31-1048; P05106 27-788)
T1 chain 1: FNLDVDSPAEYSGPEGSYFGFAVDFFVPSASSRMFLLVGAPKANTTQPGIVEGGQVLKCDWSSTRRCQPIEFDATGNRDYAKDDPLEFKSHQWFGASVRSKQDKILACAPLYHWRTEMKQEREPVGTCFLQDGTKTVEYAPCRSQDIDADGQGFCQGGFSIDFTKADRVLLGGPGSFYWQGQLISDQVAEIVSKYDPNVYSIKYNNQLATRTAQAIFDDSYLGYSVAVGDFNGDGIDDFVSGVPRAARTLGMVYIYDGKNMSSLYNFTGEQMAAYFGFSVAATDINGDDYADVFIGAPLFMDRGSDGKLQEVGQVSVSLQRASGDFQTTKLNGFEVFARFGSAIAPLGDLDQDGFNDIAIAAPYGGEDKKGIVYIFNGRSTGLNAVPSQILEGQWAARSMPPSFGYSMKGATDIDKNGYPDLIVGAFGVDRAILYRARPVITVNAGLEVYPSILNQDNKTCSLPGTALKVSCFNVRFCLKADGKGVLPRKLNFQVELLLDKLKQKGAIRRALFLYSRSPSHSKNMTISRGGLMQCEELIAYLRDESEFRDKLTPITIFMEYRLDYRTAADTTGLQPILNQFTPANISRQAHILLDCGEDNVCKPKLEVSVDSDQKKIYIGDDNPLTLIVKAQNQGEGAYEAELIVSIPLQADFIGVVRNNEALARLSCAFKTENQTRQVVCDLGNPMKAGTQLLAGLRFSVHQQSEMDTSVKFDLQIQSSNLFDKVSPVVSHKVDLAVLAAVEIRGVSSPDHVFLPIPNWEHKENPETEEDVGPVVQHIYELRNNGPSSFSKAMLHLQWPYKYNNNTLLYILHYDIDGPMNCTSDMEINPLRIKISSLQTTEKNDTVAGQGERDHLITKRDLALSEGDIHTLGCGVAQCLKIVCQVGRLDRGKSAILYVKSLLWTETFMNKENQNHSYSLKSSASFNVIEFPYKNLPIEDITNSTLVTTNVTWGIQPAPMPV
T1 chain 2: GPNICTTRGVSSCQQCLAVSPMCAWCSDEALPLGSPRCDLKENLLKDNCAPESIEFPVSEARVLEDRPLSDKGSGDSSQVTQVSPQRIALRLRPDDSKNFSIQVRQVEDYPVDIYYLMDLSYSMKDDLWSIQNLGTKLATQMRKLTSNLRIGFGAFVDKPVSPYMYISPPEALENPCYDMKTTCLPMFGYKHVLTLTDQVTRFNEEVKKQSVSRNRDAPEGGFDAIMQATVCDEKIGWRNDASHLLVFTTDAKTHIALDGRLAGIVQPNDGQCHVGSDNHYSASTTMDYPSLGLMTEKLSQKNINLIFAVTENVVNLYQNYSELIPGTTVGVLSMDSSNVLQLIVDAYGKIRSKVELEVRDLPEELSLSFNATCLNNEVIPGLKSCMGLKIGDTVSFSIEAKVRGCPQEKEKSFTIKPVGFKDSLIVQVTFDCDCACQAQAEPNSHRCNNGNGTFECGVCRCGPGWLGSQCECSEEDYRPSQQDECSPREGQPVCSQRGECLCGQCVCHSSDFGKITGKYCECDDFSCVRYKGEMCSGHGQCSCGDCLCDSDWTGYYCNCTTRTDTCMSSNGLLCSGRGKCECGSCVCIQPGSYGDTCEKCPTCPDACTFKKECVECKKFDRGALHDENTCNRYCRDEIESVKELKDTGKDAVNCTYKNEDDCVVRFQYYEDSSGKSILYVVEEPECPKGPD


How the values were obtained:
integrin αvβ3 [1] = molecular target: integrin αvβ3 (UniProt P06756); assay: SPR; Biacore X100, CM5 chip, integrin αvβ3 amine-coupled (~4200 RU), single cycle kinetics; running buffer Tris-HCl 20 mM, NaCl 150 mM, P20 0.05%, MgCl2 1 mM and MnCl2 1 mM, pH 7.4; kinetic fit, steady state fit for fibronectin
integrin αvβ3 [2] = molecular target: integrin αvβ3 (UniProt P06756); assay: SPR; Biacore X100, CM5 chip, integrin αvβ3 amine-coupled (~4200 RU), single cycle kinetics; running buffer Tris-HCl 20 mM, NaCl 150 mM, P20 0.05%, MgCl2 1 mM, pH 7.4; kinetic fit, steady state fit for fibronectin
integrin αvβ3 [3] = molecular target: integrin αvβ3 (UniProt P06756); assay: as above; remark: listed apart in the source
integrin αvβ3 [4] = molecular target: T1, integrin αvβ3; assay: SPR; Mg2+
integrin αvβ3 [5] = molecular target: T1, integrin αvβ3; assay: SPR; Mg2+
integrin αvβ3 [6] = molecular target: integrin αvβ3 (UniProt P06756); assay: SPR; Biacore X100, CM5 chip, integrin αvβ3 amine-coupled (~4200 RU), single cycle kinetics; running buffer Tris-HCl 20 mM, NaCl 150 mM, P20 0.05%, MgCl2 1 mM and MnCl2 1 mM, pH 7.4; kinetic fit, steady state fit for fibronectin; remark: listed apart in the source
integrin αvβ3 [7] = molecular target: T1, integrin αvβ3; assay: SPR; Mg2+ + Mn2+
integrin αvβ3 [8] = molecular target: T1, integrin αvβ3; assay: SPR; Mg2+ + Mn2+
integrin αvβ3 [9] = molecular target: integrin αvβ3 (UniProt P06756 31-1048; P05106 27-788); assay: SPR; Biacore X100, single cycle kinetics, in the presence of Mg2+ and Mn2+; conditions: both partners purified

Sequence of vitronectin (P04004 20-478): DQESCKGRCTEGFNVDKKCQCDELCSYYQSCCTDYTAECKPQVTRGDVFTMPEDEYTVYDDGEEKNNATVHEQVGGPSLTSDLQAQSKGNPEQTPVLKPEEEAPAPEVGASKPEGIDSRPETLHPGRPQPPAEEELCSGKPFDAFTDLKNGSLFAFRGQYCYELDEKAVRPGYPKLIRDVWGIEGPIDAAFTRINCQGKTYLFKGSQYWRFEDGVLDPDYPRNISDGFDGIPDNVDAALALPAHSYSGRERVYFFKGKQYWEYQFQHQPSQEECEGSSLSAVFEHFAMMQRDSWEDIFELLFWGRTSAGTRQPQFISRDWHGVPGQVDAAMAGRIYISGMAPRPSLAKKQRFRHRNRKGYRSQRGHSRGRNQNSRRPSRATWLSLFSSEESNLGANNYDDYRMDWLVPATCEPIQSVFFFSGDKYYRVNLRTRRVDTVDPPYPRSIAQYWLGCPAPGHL

| Kd (integrin αvβ3 [1]) [nM] | koff (integrin αvβ3 [1]) [s⁻¹] | kon (integrin αvβ3 [1]) [M⁻¹ s⁻¹] | Kd (integrin αvβ3 [2]) [nM] | koff (integrin αvβ3 [2]) [s⁻¹] | kon (integrin αvβ3 [2]) [M⁻¹ s⁻¹] | Kd (integrin αvβ3 [3]) [nM] | koff (integrin αvβ3 [3]) [s⁻¹] | kon (integrin αvβ3 [3]) [M⁻¹ s⁻¹] | Kd (integrin αvβ3 [4]) [nM] | koff (integrin αvβ3 [5]) [s⁻¹] | Kd (integrin αvβ3 [6]) [nM] | koff (integrin αvβ3 [6]) [s⁻¹] | kon (integrin αvβ3 [6]) [M⁻¹ s⁻¹] | Kd (integrin αvβ3 [7]) [nM] | koff (integrin αvβ3 [8]) [s⁻¹] | fold stronger binding than vitronectin (integrin αvβ3 [9]) [fold] | Molecule |
| --- | --- | --- | --- | --- | --- | --- | --- | --- | --- | --- | --- | --- | --- | --- | --- | --- | --- |
| 24 | 0.00032 | 13000 | 1.3 | 0.00021 | 32000 | – | – | – | – | – | – | – | – | – | – | – | vitronectin (from UniProt P04004 20-478) (ligand) |
| – | – | – | – | – | – | 0.075 | 7e-05 | 930000 | 0.075 | 7e-05 | 0.00071 | 2.5e-07 | 350000 | 0.00071 | 2.5e-07 | 1000 | cyclo(RGD[dY]K) (also: dimer of two cyclic peptides on a Glu linker, NODAGA chelator with 68Ga) [[^68Ga]Ga-NODAGA-E[(cRGDyK)]2] |
